This is an account of results in patent publication US20230357422A1 (published 2023).

Substitutions are numbered along the chain they refer to.

The chains are these.
B1: A-Ye-13 (Fc fusion)
chain: EVQLQESGGGLVQAGGSLRLSCAASGFTFDDYAIGWFRQAPGKEREGVLCISSSGGSTYYADSVKGRFTISRDNAKNTVYLQMTNLKPEDTAVYLCGAPRDCSYYTGDDYWGQGTQVTVSSTHTCPPCPAPEAAGGPSVFLFPPKPKDTLMISRTPEVTCVVVDVSHEDPEVKFNWYVDGVEVHNAKTKPREEQYNSTYRVVSVLTVLHQDWLNGKEYKCKVSNKALPAPIEKTISKAKGQPREPQVYTLPPSREEMTKNQVSLTCLVKGFYPSDIAVEWESNGQPENNYKTTPPVLDSDGSFFLYSKLTVDKSRWQQGNVFSCSVMHEALHNHYTQKSLSLSPG
B2: A-Ye-27 (Fc fusion)
chain: QVQLQESGGGLVQPGGSLRLSCAASGFSLGLYAIGWFRQAPGKEREWVSCIMSSDSSAYYADSVKGRFTVSRDNAKNTVYLQMTNLKPEDTAVYLCGAPRDCSRYSSDDYWGQGTQVTVSSTHTCPPCPAPEAAGGPSVFLFPPKPKDTLMISRTPEVTCVVVDVSHEDPEVKFNWYVDGVEVHNAKTKPREEQYNSTYRVVSVLTVLHQDWLNGKEYKCKVSNKALPAPIEKTISKAKGQPREPQVYTLPPSREEMTKNQVSLTCLVKGFYPSDIAVEWESNGQPENNYKTTPPVLDSDGSFFLYSKLTVDKSRWQQGNVFSCSVMHEALHNHYTQKSLSLSPG
B3: A-Ye-20 (Fc fusion)
chain: B1 chain with E1Q, G107S
B4: A-Ye-25 (Fc fusion)
chain: B1 chain with E1Q, A14V, V64L, Y104L
B5: A-Ye-14 (Fc fusion)
chain: QVQLQESGGGLVQPGGSLRLSCAASGFSLGLYAIGWFRQAPGKEREWVSCIMSSDSSAYYADSVKGRFTVSRDNAKNTVYLQMNRLKPEDTAVYYCAAPQSDCFHYSENDYWGQGTQVTVSSTHTCPPCPAPEAAGGPSVFLFPPKPKDTLMISRTPEVTCVVVDVSHEDPEVKFNWYVDGVEVHNAKTKPREEQYNSTYRVVSVLTVLHQDWLNGKEYKCKVSNKALPAPIEKTISKAKGQPREPQVYTLPPSREEMTKNQVSLTCLVKGFYPSDIAVEWESNGQPENNYKTTPPVLDSDGSFFLYSKLTVDKSRWQQGNVFSCSVMHEALHNHYTQKSLSLSPG
B6: A-Ye-22 (Fc fusion)
chain: B5 chain with P14A, G30D, L31Y, M52T, S53A, V70I, Q82R, R85S, Q100R, S107G
B7: A-Ye-19 (Fc fusion)
chain: B5 chain with P14A
B8: A-Ye-21 (Fc fusion)
chain: B5 chain with G30D, L31Y, V70I, T78L, Q82R, R85S, A97T, Q100R, S107G
B9: A-Ye-03 (Fc fusion)
chain: QVQLQESGGGLVQAGGSLRLSCAASGFTLDYYAIGWFRQAPGKEREGVLCISSSGETTYYSDSVKGRFTISRDNAKNKVYLQMNSLKPEDTAVYYCGAELLGSGEGCYVWSRDGSYWGQGTQVTVSSTHTCPPCPAPEAAGGPSVFLFPPKPKDTLMISRTPEVTCVVVDVSHEDPEVKFNWYVDGVEVHNAKTKPREEQYNSTYRVVSVLTVLHQDWLNGKEYKCKVSNKALPAPIEKTISKAKGQPREPQVYTLPPSREEMTKNQVSLTCLVKGFYPSDIAVEWESNGQPENNYKTTPPVLDSDGSFFLYSKLTVDKSRWQQGNVFSCSVMHEALHNHYTQKSLSLSPG
B10: A-Na-16 (Fc fusion)
chain: QVQLVESGGGLVPPGESLRLSCAASGAIFRINTGAWYRQAPGKQRELVASLTTYGKTTYADFVKGRFTISRDDARNTVSLQMNSLKPEDTAIYYCHIGPEPRYGYWGQGTQVTVSSTHTCPPCPAPEAAGGPSVFLFPPKPKDTLMISRTPEVTCVVVDVSHEDPEVKFNWYVDGVEVHNAKTKPREEQYNSTYRVVSVLTVLHQDWLNGKEYKCKVSNKALPAPIEKTISKAKGQPREPQVYTLPPSREEMTKNQVSLTCLVKGFYPSDIAVEWESNGQPENNYKTTPPVLDSDGSFFLYSKLTVDKSRWQQGNVFSCSVMHEALHNHYTQKSLSLSPG
B11: A-Na-19 (Fc fusion)
chain: B10 chain with R75K, S79Y
B12: A-Na-18 (Fc fusion)
chain: B10 chain with R75E
B13: A-Ye-04 (Fc fusion)
chain: B10 chain with V5Q, R75K
B14: L-Yr-13&14-13 (Fc fusion)
chain: QVQLQESGGGLVQAGDSLRLSCAASGSTFSITAMGWYRQPPGKQRELVASIITGDGDTNYADSVKGRFTISRDNAKNTMYLQMNSLKPEDTAVYYCYARTGYGSSWLMGHEYDYWGQGTQVTVSSTHTCPPCPAPEAAGGPSVFLFPPKPKDTLMISRTPEVTCVVVDVSHEDPEVKFNWYVDGVEVHNAKTKPREEQYNSTYRVVSVLTVLHQDWLNGKEYKCKVSNKALPAPIEKTISKAKGQPREPQVYTLPPSREEMTKNQVSLTCLVKGFYPSDIAVEWESNGQPENNYKTTPPVLDSDGSFFLYSKLTVDKSRWQQGNVFSCSVMHEALHNHYTQKSLSLSPG
B15: L-Yr-13&14-09 (Fc fusion)
chain: B14 chain with D16G, R19K, T32S, P40A, S50A, I52V, T53I
B16: L-Yr-13&14-12 (Fc fusion)
chain: B14 chain with S50A, T53M, G54S, A61Q, S105G, M108E
B17: L-Yr-13&14-07 (Fc fusion)
chain: B14 chain with S30G, S50A, T53M, G54S, A61Q, P88L, S105G, W106R
B18: L-Yr-13&14-08 (Fc fusion)
chain: QVQLQESGGGLVQPGGSLRLSCAASGSTFSISAMGWYRQPPGKQRELVALIIMSDGDTNYQDSVKGRFTISRDNANNTMYLQMNSLKLEDTAVYYCYARTGYGSGRLMGHEYDYWGQGTQVTVSSTHTCPPCPAPEAAGGPSVFLFPPKPKDTLMISRTPEVTCVVVDVSHEDPEVKFNWYVDGVEVHNAKTKPREEQYNSTYRVVSVLTVLHQDWLNGKEYKCKVSNKALPAPIEKTISKAKGQPREPQVYTLPPSREEMTKNQVSLTCLVKGFYPSDIAVEWESNGQPENNYKTTPPVLDSDGSFFLYSKLTVDKSRWQQGNVFSCSVMHEALHNHYTQKSLSLSPG
B19: L-Yr-13&14-10 (Fc fusion)
chain: B14 chain with D16G, P40A, K43Q, S50A, I52A, T53S, D57A, S63F, Y80F, T91S
B20: L-Yr-13&14-02 (Fc fusion)
chain: QVQLQESGGGLVQAGGSLRLSCAASGGTFSITAMGWYRQAPGQQRELVAAIASGDGATNYADFVKGRFTISRDNAKNTMFLQMNSLKPEDSAVYYCYARTGYGSSWPMGHEYDYWGQGTQVTVSSTHTCPPCPAPEAAGGPSVFLFPPKPKDTLMISRTPEVTCVVVDVSHEDPEVKFNWYVDGVEVHNAKTKPREEQYNSTYRVVSVLTVLHQDWLNGKEYKCKVSNKALPAPIEKTISKAKGQPREPQVYTLPPSREEMTKNQVSLTCLVKGFYPSDIAVEWESNGQPENNYKTTPPVLDSDGSFFLYSKLTVDKSRWQQGNVFSCSVMHEALHNHYTQKSLSLSPG
B21: L-Yr-13&14-11 (Fc fusion)
chain: B18 chain with P14A, G16D, S32T, L50A, N76K
B22: L-Yr-13&14-17 (Fc fusion)
chain: QVQLQESGGGLVQAGGSLRLSCAASRSIFSSYVMAWYRQAPGKERELVALIRYGGSTDYADSVKGRFTISRDNSKNTLILQMNSLKPEDTAMYYCAASKSAYIFDDRDYWGQGTQVTVSSTHTCPPCPAPEAAGGPSVFLFPPKPKDTLMISRTPEVTCVVVDVSHEDPEVKFNWYVDGVEVHNAKTKPREEQYNSTYRVVSVLTVLHQDWLNGKEYKCKVSNKALPAPIEKTISKAKGQPREPQVYTLPPSREEMTKNQVSLTCLVKGFYPSDIAVEWESNGQPENNYKTTPPVLDSDGSFFLYSKLTVDKSRWQQGNVFSCSVMHEALHNHYTQKSLSLSPG

T1 sequence (Q07011 24-186 limits assumed): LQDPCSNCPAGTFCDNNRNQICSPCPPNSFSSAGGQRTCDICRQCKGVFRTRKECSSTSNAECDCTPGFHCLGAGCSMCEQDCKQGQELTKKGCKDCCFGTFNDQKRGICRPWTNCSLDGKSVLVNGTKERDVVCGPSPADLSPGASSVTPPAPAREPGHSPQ

This experiment has as its target T1, 4-1BB antigen (human, UniProt Q07011 24-186, limits assumed).
T1 construct: also called human 4-1BB antigen; human 4-1BB protein
Kind of experiment: BLI (ForteBio), antibody on AHQ sensor, 100 nM 4-1BB antigen, 1:1 model. On the procedure: ForteBio affinity determination was performed according to the existing method (Estep, P et al., Solution-based measurement of high-throughput antibody-antigen affinity and epitope classification, MAbs, 2013.5(2):p. 270-8). Briefly, the sensor was equilibrated offline for 30 min in the assay buffer, then the baseline was established by detection online for 60 s, and the purified antibody obtained as described above was loaded onto the AHQ sensor online. Then, the sensor was put into 100 nM 4-1BB antigen to act for 5 minutes, and the sensor was transferred to PBS and dissociated for 5 minutes. Analysis of kinetics was performed using a 1:1 binding model.
Usually Kd stands for the concentration at which binding is half-saturated. Read a high Kd as a looser complex. Consider B1, for which the Kd was 0.0119 µM. In turn, B2 registered a Kd of 0.00755 µM. B3 displayed a Kd of 0.0268 µM.

With B4, the Kd was 0.0135 µM. Against the preceding molecule, the Kd is about 2-fold lower. Molecule B5 registered a Kd of 0.0145 µM. This Kd and that of the molecule before are within 1.5-fold of each other. As for B6, the Kd came out at 0.0226 µM. As to B7, the Kd is 0.013 µM. Against the preceding molecule, the Kd is about 1.7-fold lower. The figure for B8 is 0.023 µM; for B9 it is 0.0283 µM; for B10 it is 0.0208 µM. With B11, the affinity, expressed as Kd, was 0.0151 µM. As to B12, the Kd was 0.0175 µM. For B13, binding was characterised by a dissociation constant (Kd) of 0.222 µM. Compared with the last molecule, the Kd is about 13-fold higher.

B14 displayed a Kd of 0.0232 µM. As for B15, binding was characterised by a dissociation constant (Kd) of 0.021 µM. B16 came in with a Kd of 0.0308 µM. In turn, B17 registered a Kd of 0.0143 µM. Molecule B18 displayed a Kd of 0.0205 µM. B19 had a Kd of 0.046 µM. In turn, B20 yielded a Kd of 0.0447 µM. The Kd values of the last two molecules are within 1.5-fold of each other. With B21, the Kd stood at 0.0216 µM.

In the case of B22, the Kd was found to be 0.0251 µM.
